Data reported in PMC7955166, “Structural Basis of CYRI-B Direct Competition with Scar/WAVE Complex for Rac1” (Structure(London, England:1993), 2021).

Columns and labels:
[1] = target: the molecule itself; assay: crystal structure; CYRI-BΔN alone, selenomethionine SAD, 2.37Å, two molecules in the asymmetric unit; crystals at 291K, 0.1M carboxylic acid, 8% MPD_P1K_P33, 0.1M MOPS/HEPES-Na pH 8.0
Rac1Q61L = Rac1Q61L (human, UniProt P63000 1-192, Q61L); assay: SPR; Biacore T200; anti-MBP antibody coupled on a CM5 chip; MBP-CYRI-BΔN captured (~800 RU) on flow-cell 2, MBP (400 RU) on flow-cell 1; Rac1Q61L 0.625μM-80μM as analyte; details: both partners purified

Binder | binding result [1] | Kd (Rac1Q61L) [µM]
mouse CYRI-B residues 26-324 (CYRI-BΔN) (domain or fragment, UniProt Q921M7 26-324, looked up, selenomethionine labelled, CYRI-B (Fam49B), mouse, residues 26-324 (entire DUF1394 domain; N-terminal residues 1-25 truncated); Two copies in the asymmetric unit of PDB 7AJL; also called Fam49B; source: E. coli B834 (DE3), selenomethionine labelled, purified (HisTrap, TEV, HisTrap flow-through, Superdex S200); not shown: His10, N-terminal, cleaved; MBP, N-terminal, cleaved) AQPTESEKEIYNQVNVVLKDAEGILEDLQSYRGAGHEIREAIQHPADEKLQEKAWGAVVPLVGKLKKFYEFSQRLEAALRGLLGALTSTPYSPTQHLEREQALAKQFAEILHFTLRFDELKMTNPAIQNDFSYYRRTLSRMRINNVPAEGENEVNNELANRMSLFYAEATPMLKTLSDATTKFVSENKNLPIENTTDCLSTMASVCRVMLETPEYRSRFTNEETVSFCLRVMVGVIILYDHVHPVGAFAKTSKIDMKGCIKVLKDQPPNSVEGLLNALRYTTKHLNDETTSKQIRSMLQ | binds | 
MBP-CYRI-BΔN (domain or fragment, The purification of the uncleaved MBP fusion used for SPR is not described; source: E. coli BL21 pLysS; not shown: His10, N-terminal, kept; MBP, N-terminal, kept) AQPTESEKEIYNQVNVVLKDAEGILEDLQSYRGAGHEIREAIQHPADEKLQEKAWGAVVPLVGKLKKFYEFSQRLEAALRGLLGALTSTPYSPTQHLEREQALAKQFAEILHFTLRFDELKMTNPAIQNDFSYYRRTLSRMRINNVPAEGENEVNNELANRMSLFYAEATPMLKTLSDATTKFVSENKNLPIENTTDCLSTMASVCRVMLETPEYRSRFTNEETVSFCLRVMVGVIILYDHVHPVGAFAKTSKIDMKGCIKVLKDQPPNSVEGLLNALRYTTKHLNDETTSKQIRSMLQ |  | 25
